Test system: Escherichia coli TOP10
Test: shrunken log2 fold change of peptide-encoding DNA abundance (4.5 h post-induction vs induction); higher = less antimicrobial activity (less host growth inhibition)
Settings: time post-induction: 4.5 h; library: site-saturation at positions 5, 18, 19, 20
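Also: peptides expressed intracellularly from a pBAD plasmid library in pooled LB shake-flask culture, induced with 0.3% L-arabinose, DNA abundance read by NGS, three biological replicates, DESeq2 with apeglm shrinkage.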

| Sequence | shrunken log2 fold change |
| --- | --- |
| RRIRRRPPRLPRPRPRPFIFPRP | 0.25 |
| RRIRERPPRLPRPRPRPWPHPRP | -0.0947 |
| RRIRVRPPRLPRPRPRPMLIPRP | -0.0178 |
| RRIRLRPPRLPRPRPRPSEHPRP | -0.453 |
| RRIRTRPPRLPRPRPRPHVQPRP | -0.156 |
| RRIRTRPPRLPRPRPRPVPCPRP | -0.0501 |
| RRIRMRPPRLPRPRPRPYPDPRP | -0.0456 |
| RRIRERPPRLPRPRPRPKPYPRP | 0.082 |
| RRIRSRPPRLPRPRPRPLDQPRP | -0.0226 |
| RRIRFRPPRLPRPRPRPMGWPRP | 0.0642 |
| RRIRRRPPRLPRPRPRPYRTPRP | -0.394 |
| RRIRIRPPRLPRPRPRPESNPRP | 0.0344 |
| RRIRHRPPRLPRPRPRPNSNPRP | -1.16 |
| RRIRGRPPRLPRPRPRPVCAPRP | 1.06 |
| RRIRGRPPRLPRPRPRPCWFPRP | 0.584 |
| RRIRTRPPRLPRPRPRPGRIPRP | -0.171 |
| RRIRGRPPRLPRPRPRPWCRPRP | 0.195 |
| RRIRSRPPRLPRPRPRPGQKPRP | 0.0237 |
| RRIRKRPPRLPRPRPRPDMCPRP | 0.217 |
| RRIRMRPPRLPRPRPRPVIRPRP | 0.00204 |
| RRIRKRPPRLPRPRPRPAGIPRP | 0.252 |
| RRIRNRPPRLPRPRPRPIRYPRP | -0.746 |
| RRIRQRPPRLPRPRPRPAIKPRP | -0.316 |

| Sequence | shrunken log2 fold change |
| --- | --- |
| RRIRARPPRLPRPRPRPNEHPRP | 0.0215 |
| RRIRVRPPRLPRPRPRPPQRPRP | 0.374 |
| RRIRGRPPRLPRPRPRPPGYPRP | 0.737 |
| RRIRCRPPRLPRPRPRPSQTPRP | -0.338 |
| RRIRRRPPRLPRPRPRPFEYPRP | -0.0276 |
| RRIRKRPPRLPRPRPRPLWLPRP | 0.377 |
| RRIRTRPPRLPRPRPRPLDKPRP | -0.18 |
| RRIRERPPRLPRPRPRPADQPRP | 0.0155 |
| RRIRCRPPRLPRPRPRPFTMPRP | -1.13 |
| RRIRDRPPRLPRPRPRPHAEPRP | 0.0887 |
| RRIRYRPPRLPRPRPRPRAQPRP | 0.174 |
| RRIRPRPPRLPRPRPRPHMSPRP | -0.27 |
| RRIRMRPPRLPRPRPRPQLSPRP | -0.102 |
| RRIRPRPPRLPRPRPRPLDNPRP | -0.171 |
| RRIRARPPRLPRPRPRPYRCPRP | -0.174 |
| RRIRGRPPRLPRPRPRPDMEPRP | 0.864 |
| RRIRIRPPRLPRPRPRPHRPPRP | -0.166 |
| RRIRDRPPRLPRPRPRPMKGPRP | 0.0395 |
| RRIRVRPPRLPRPRPRPFEIPRP | -0.486 |
| RRIRCRPPRLPRPRPRPTNGPRP | -0.0378 |
| RRIRFRPPRLPRPRPRPNCVPRP | -0.321 |
| RRIRKRPPRLPRPRPRPIHFPRP | -0.241 |
| RRIRNRPPRLPRPRPRPVQWPRP | -0.0368 |

| Sequence | shrunken log2 fold change |
| --- | --- |
| RRIRTRPPRLPRPRPRPNMTPRP | -0.0848 |
| RRIRPRPPRLPRPRPRPWYDPRP | -0.00228 |
| RRIRPRPPRLPRPRPRPWMPPRP | -0.00504 |
| RRIRARPPRLPRPRPRPMACPRP | 0.879 |
| RRIRTRPPRLPRPRPRPKHGPRP | -0.0288 |
| RRIRRRPPRLPRPRPRPGPPPRP | 1.93 |
| RRIRQRPPRLPRPRPRPGSTPRP | -0.146 |
| RRIRIRPPRLPRPRPRPPRQPRP | 0.337 |
| RRIRIRPPRLPRPRPRPAGKPRP | 0.0304 |
| RRIRNRPPRLPRPRPRPLIVPRP | -0.332 |
| RRIRCRPPRLPRPRPRPQNNPRP | -0.526 |
| RRIRERPPRLPRPRPRPKMKPRP | -0.226 |
| RRIRQRPPRLPRPRPRPAGTPRP | 0.134 |
| RRIRCRPPRLPRPRPRPVPGPRP | 0.0667 |
| RRIRYRPPRLPRPRPRPACAPRP | -0.236 |
| RRIRWRPPRLPRPRPRPGGQPRP | -0.0831 |
| RRIRVRPPRLPRPRPRPPHIPRP | 0.0567 |
| RRIRLRPPRLPRPRPRPYAGPRP | 0.0235 |
| RRIRTRPPRLPRPRPRPFLDPRP | -0.553 |
| RRIRLRPPRLPRPRPRPHDLPRP | -0.308 |
| RRIRMRPPRLPRPRPRPTSFPRP | 0.347 |
| RRIRGRPPRLPRPRPRPGGWPRP | 1.58 |
| RRIRVRPPRLPRPRPRPSWQPRP | -0.251 |

| Sequence | shrunken log2 fold change |
| --- | --- |
| RRIRMRPPRLPRPRPRPGTTPRP | 1.24 |
| RRIRARPPRLPRPRPRPHHEPRP | -0.119 |
| RRIRRRPPRLPRPRPRPISCPRP | 0.00341 |
| RRIRQRPPRLPRPRPRPLHIPRP | -0.423 |
| RRIRGRPPRLPRPRPRPINNPRP | -0.0606 |
| RRIRHRPPRLPRPRPRPIHVPRP | 0.0364 |
| RRIRQRPPRLPRPRPRPEIVPRP | 0.143 |
| RRIRVRPPRLPRPRPRPVFYPRP | -0.178 |
| RRIRYRPPRLPRPRPRPLSAPRP | -0.542 |
| RRIRHRPPRLPRPRPRPSQHPRP | -0.411 |
| RRIRTRPPRLPRPRPRPKACPRP | 0.0653 |
| RRIRNRPPRLPRPRPRPRCGPRP | 0.0586 |
| RRIRYRPPRLPRPRPRPVTSPRP | -0.168 |
| RRIRWRPPRLPRPRPRPEQPPRP | 0.157 |
| RRIRWRPPRLPRPRPRPWTTPRP | -0.148 |
| RRIRTRPPRLPRPRPRPRRKPRP | 0.0652 |
| RRIRRRPPRLPRPRPRPGDMPRP | 0.0846 |
| RRIRQRPPRLPRPRPRPTCNPRP | -0.348 |
| RRIRSRPPRLPRPRPRPNDKPRP | -0.553 |
| RRIRFRPPRLPRPRPRPDQIPRP | -0.0948 |
| RRIRWRPPRLPRPRPRPDAWPRP | 0.884 |
| RRIRARPPRLPRPRPRPIFGPRP | 0.0662 |
